# Measurements as given in the supplement of paper PMC7877785.
# ± gives the uncertainty stated by the source.
# Assay: self-splicing fitness, log relative to wild type (ln ratio); higher = more splicing; Tetrahymena group I intron in knt gene, E. coli kanamycin selection, DiMSum; sequences stand for … in CUCUCU…GGAGGGAAAAGUUAUCAGGCAUGCACCUGGUAGCUAGUCUUUAAACCAAUAGAUUGCAUCGGUUUAAAAGGCAAGACCGUCAAAUUGCGGGAAAGGGGUCAACAGCCGUUCAGUACCAAGUCUCAGGGGAAACUUUGAGAUGGCCUUGCAAAGGGUAUGGUAAUAAGCUGACGGACAUGGUCCUAACCACGCAGCCAAGUCCUAAGUCAACAGAUCUUCUGUUGAUAUGGAUGCAGUUCACAGACUAAAUGUCGGUCGGGGAAGAUGUAUUCUUCUCAUAAGAUAUAGUCGGACCUCUCCUUAAUGGGAGCUAGCGGAUGAAGUGAUGCAACACUGGAGCCGCUGGGAACUAAUUUGUAUGCGAAAGUAUAUUGAUUAGUUUUGGAGUACUCGUGGUCG
# Summary of the method: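 DiMSum derived fitness as the error-weighted combination of fold changes across replicates, kanamycin versus no kanamycin, normalised to wild type. E. coli BL21(DE3) held the library, which randomised all eight P1ex-region intron nucleotides within the knt kanamycin-resistance gene on pET-22b(+). Six replicate transformations grew overnight at 37°C or 30°C on LB agar with or without 25 μg/mL kanamycin, also containing 100 μg/mL carbenicillin, 50 μM IPTG and 0.2% rhamnose, and pooled colonies were amplicon-sequenced on an Illumina HiSeq 2500.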
Sequence,self-splicing fitness (ln) (30 °C),self-splicing fitness (ln) (37 °C)
CUAAAGCAAUAUUACGGAAU,-3.72 ± 0.24,-2.14 ± 0.22
UAUGAGCAAUAUUACGUGAU,-3.04 ± 0.15,-2.76 ± 0.25
CCCUAGCAAUAUUACGAACG,-3 ± 0.21,-2.59 ± 0.29
UAGCAGCAAUAUUACGUGUG,-1.63 ± 0.064,-0.7 ± 0.08
GCUAAGCAAUAUUACGUAAA,-0.877 ± 0.068,-0.32 ± 0.091
UUCCAGCAAUAUUACGCUGC,-3.79 ± 0.28,-2.09 ± 0.4
ACGAAGCAAUAUUACGCAGG,-1.67 ± 0.11,-1.44 ± 0.12
AAGUAGCAAUAUUACGAAAC,-3.53 ± 0.27,-1.45 ± 0.29
UAGAAGCAAUAUUACGACUG,-0.418 ± 0.083,-0.0265 ± 0.1
CUUGAGCAAUAUUACGUCAC,-3.37 ± 0.23,-2.73 ± 0.31
AACGAGCAAUAUUACGUGUU,,-3.62 ± 0.34
UGUAAGCAAUAUUACGGAUU,-2.59 ± 0.12,-1.09 ± 0.12
GAACAGCAAUAUUACGUCAU,-0.993 ± 0.069,-0.47 ± 0.084
GUGCAGCAAUAUUACGAAAC,-1.82 ± 0.1,-1.26 ± 0.095
UCUGAGCAAUAUUACGCUGU,-2 ± 0.23,-1.07 ± 0.19
GAGAAGCAAUAUUACGGAUC,-2.34 ± 0.34,-1.97 ± 0.4
CCGAAGCAAUAUUACGGUCG,-0.661 ± 0.11,-0.369 ± 0.14
GUAGAGCAAUAUUACGGUCA,-1.47 ± 0.098,-0.0887 ± 0.12
UUGAAGCAAUAUUACGCCGC,,-2.1 ± 0.43
UACCAGCAAUAUUACGUUUA,-0.529 ± 0.052,-0.264 ± 0.064
GCCUAGCAAUAUUACGUAUC,-1.26 ± 0.076,-0.501 ± 0.094
GCUCAGCAAUAUUACGUAGU,-0.46 ± 0.059,-0.522 ± 0.075
CAGUAGCAAUAUUACGUAAU,-4 ± 0.28,-2.63 ± 0.44
UCUUAGCAAUAUUACGACUC,,-1.03 ± 0.5
GCGGAGCAAUAUUACGUUGG,,-3.01 ± 0.4

Sequence,self-splicing fitness (ln) (30 °C),self-splicing fitness (ln) (37 °C)
UAGAAGCAAUAUUACGACGA,-0.144 ± 0.1,-0.0918 ± 0.1
UAAGAGCAAUAUUACGGUUC,-2.19 ± 0.21,-2.14 ± 0.46
CAUCAGCAAUAUUACGUACA,-2.24 ± 0.14,-1.92 ± 0.16
CAGCAGCAAUAUUACGAAUC,-2.38 ± 0.27,-2.33 ± 0.4
AAAGAGCAAUAUUACGGAAA,-2.38 ± 0.26,-2.53 ± 0.41
CCCGAGCAAUAUUACGAUAA,-1.81 ± 0.23,-2.73 ± 0.25
AUCCAGCAAUAUUACGGAGA,-2.43 ± 0.14,-0.986 ± 0.12
AGGCAGCAAUAUUACGUGAA,-1.12 ± 0.07,-0.932 ± 0.11
CAGAAGCAAUAUUACGUGAA,-3.07 ± 0.13,-1.16 ± 0.12
CGGUAGCAAUAUUACGGUCC,-2.24 ± 0.15,-0.321 ± 0.17
CUUAAGCAAUAUUACGCGUC,-2.08 ± 0.12,-3.25 ± 0.23
ACGUAGCAAUAUUACGAUAG,-3.45 ± 0.24,-2.53 ± 0.23
AAACAGCAAUAUUACGUUUU,-3.81 ± 0.11,-3 ± 0.15
AGGCAGCAAUAUUACGGAAC,-4.21 ± 0.47,-2.29 ± 0.36
CUAAAGCAAUAUUACGCCUC,-3.62 ± 0.21,-1.85 ± 0.27
CUGAAGCAAUAUUACGUGGC,-1.58 ± 0.077,-0.491 ± 0.099
CCACAGCAAUAUUACGCUCA,-2.89 ± 0.21,-2.41 ± 0.27
GUUUAGCAAUAUUACGCUCU,-0.694 ± 0.091,-0.764 ± 0.11
CGAAAGCAAUAUUACGGAGA,-2.59 ± 0.29,-1.58 ± 0.37
CUAAAGCAAUAUUACGAGUA,-3.16 ± 0.3,-2.73 ± 0.36
GGUCAGCAAUAUUACGAUAG,-1.37 ± 0.077,0.0315 ± 0.1
UUCUAGCAAUAUUACGCGUA,-1.15 ± 0.25,-0.575 ± 0.21
GCCAAGCAAUAUUACGUCCG,-2.19 ± 0.33,-1.6 ± 0.32
AUCAAGCAAUAUUACGGCGG,-1.04 ± 0.066,-0.788 ± 0.091
